The record followed here is US20210317499A1.

The assay deals with His-tagged FcγRIIIa recombinant protein (UniProt P08637). Kind of assay: SPR (Biacore X100); His-tagged FcγRIIIa captured on anti-His antibody CM5 chip, antibody as analyte; 1:1 Langmuir fit. In general terms: SPR reads the build-up and loss of mass on a sensor chip optically.
Chain of UniProt P08637 (P08637 17-208 limits assumed): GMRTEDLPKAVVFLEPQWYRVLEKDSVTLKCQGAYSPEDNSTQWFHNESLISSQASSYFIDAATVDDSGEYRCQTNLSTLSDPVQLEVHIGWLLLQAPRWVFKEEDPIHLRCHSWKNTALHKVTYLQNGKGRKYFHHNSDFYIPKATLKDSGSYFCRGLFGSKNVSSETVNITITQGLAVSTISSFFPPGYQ

On to “GAZYVA (obinutuzumab), commercial afucosylated anti-CD20 antibody”, for which the Kd stood at 39.9 nM, the koff stood at 0.0069 s⁻¹ and the kon was 173000 M⁻¹ s⁻¹.

Broadly, the Kd is the constant that tells how readily two partners part at equilibrium. By koff is commonly meant the first-order rate constant of dissociation. A word on the kon: it is the rate constant with which the complex forms.
